Among the data in paper PMC7926377 are KM of ABZ-Tyr-Met-Leu-Ser-ANB-NH2 hydrolysis (Michaelis-Menten fit, PBS, 37 °C) values, retold here.

Test [1] deals with T1, His6-SplF (S. aureus strain 8325-4) (UniProt Q2FXC8).
T1 sequence: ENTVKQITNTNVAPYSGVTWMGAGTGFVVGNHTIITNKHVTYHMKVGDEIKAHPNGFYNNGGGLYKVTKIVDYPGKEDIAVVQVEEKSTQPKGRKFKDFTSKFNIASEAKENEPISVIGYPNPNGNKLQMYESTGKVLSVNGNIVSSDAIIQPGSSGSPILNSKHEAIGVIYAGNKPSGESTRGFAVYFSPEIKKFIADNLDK

Test [2] addresses Met-Gly-SplF-His6 (S. aureus strain 8325-4) (UniProt Q2FXC8).
The target of test [3] is T2, SplF-His6 (S. aureus strain 8325-4) (UniProt Q2FXC8).
T2 sequence: T1 sequence

ABZ-Tyr-Met-Leu-Ser-ANB-NH2 (peptide): the figures for the KM of ABZ-Tyr-Met-Leu-Ser-ANB-NH2 hydrolysis (Michaelis-Menten fit, PBS, 37 °C) in test [1], in test [2] and in test [3] were 21.4 µM, 18.2 µM and 30.8 µM, respectively.
